From paper PMC5837818 (Molecular cell, 2018)

Target: E. coli core RNAP enzyme (E. coli, UniProt P0A7Z4 1-329; P0A8V2 1-1342; P0A8T7 1-1407; P0A800 1-91)
Assay: fluorescence polarisation

Sequence of E. coli core RNAP enzyme (P0A7Z4 whole entry, chain 1 of 4): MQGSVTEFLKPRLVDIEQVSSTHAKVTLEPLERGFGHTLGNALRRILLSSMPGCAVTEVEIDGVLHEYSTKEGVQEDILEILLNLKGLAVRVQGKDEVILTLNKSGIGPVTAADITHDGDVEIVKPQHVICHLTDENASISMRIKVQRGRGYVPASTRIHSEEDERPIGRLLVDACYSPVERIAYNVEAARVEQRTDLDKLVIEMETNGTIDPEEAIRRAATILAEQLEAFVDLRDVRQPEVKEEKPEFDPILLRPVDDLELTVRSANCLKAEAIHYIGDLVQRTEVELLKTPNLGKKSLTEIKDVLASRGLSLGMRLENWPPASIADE
Sequence of E. coli core RNAP enzyme (P0A8V2 whole entry, chain 2 of 4): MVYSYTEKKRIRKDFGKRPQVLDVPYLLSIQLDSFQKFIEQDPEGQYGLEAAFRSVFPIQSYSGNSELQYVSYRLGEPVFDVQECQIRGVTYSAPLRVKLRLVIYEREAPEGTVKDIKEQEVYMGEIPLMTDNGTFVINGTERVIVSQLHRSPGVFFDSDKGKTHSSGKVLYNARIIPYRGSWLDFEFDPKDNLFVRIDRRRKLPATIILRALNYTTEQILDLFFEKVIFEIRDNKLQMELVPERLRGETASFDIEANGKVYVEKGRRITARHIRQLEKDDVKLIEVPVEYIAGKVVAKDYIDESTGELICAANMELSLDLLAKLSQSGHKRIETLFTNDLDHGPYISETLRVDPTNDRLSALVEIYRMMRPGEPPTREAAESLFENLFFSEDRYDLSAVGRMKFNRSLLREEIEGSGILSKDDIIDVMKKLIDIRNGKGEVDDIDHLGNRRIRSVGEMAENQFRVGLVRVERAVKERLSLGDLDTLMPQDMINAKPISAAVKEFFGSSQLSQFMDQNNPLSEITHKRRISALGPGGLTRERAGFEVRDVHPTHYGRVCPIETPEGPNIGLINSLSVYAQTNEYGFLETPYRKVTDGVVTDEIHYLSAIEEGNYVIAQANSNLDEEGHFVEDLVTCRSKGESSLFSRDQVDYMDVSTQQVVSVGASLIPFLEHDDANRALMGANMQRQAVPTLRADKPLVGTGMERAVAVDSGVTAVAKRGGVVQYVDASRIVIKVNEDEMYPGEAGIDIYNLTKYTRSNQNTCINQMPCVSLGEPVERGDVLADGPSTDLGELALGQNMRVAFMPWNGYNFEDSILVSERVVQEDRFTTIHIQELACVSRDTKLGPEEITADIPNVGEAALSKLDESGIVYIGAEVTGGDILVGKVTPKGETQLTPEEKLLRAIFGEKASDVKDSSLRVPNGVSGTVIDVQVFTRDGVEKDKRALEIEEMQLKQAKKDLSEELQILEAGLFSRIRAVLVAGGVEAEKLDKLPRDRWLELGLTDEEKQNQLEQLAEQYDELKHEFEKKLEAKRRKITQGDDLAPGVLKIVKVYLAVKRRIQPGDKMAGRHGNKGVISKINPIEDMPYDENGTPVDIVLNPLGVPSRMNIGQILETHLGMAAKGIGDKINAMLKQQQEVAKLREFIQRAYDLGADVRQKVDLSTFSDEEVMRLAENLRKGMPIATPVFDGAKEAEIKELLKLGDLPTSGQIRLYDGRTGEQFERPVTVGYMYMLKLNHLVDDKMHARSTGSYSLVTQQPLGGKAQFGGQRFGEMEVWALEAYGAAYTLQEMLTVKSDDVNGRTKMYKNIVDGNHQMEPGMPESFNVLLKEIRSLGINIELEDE
Sequence of E. coli core RNAP enzyme (P0A8T7 whole entry, chain 3 of 4): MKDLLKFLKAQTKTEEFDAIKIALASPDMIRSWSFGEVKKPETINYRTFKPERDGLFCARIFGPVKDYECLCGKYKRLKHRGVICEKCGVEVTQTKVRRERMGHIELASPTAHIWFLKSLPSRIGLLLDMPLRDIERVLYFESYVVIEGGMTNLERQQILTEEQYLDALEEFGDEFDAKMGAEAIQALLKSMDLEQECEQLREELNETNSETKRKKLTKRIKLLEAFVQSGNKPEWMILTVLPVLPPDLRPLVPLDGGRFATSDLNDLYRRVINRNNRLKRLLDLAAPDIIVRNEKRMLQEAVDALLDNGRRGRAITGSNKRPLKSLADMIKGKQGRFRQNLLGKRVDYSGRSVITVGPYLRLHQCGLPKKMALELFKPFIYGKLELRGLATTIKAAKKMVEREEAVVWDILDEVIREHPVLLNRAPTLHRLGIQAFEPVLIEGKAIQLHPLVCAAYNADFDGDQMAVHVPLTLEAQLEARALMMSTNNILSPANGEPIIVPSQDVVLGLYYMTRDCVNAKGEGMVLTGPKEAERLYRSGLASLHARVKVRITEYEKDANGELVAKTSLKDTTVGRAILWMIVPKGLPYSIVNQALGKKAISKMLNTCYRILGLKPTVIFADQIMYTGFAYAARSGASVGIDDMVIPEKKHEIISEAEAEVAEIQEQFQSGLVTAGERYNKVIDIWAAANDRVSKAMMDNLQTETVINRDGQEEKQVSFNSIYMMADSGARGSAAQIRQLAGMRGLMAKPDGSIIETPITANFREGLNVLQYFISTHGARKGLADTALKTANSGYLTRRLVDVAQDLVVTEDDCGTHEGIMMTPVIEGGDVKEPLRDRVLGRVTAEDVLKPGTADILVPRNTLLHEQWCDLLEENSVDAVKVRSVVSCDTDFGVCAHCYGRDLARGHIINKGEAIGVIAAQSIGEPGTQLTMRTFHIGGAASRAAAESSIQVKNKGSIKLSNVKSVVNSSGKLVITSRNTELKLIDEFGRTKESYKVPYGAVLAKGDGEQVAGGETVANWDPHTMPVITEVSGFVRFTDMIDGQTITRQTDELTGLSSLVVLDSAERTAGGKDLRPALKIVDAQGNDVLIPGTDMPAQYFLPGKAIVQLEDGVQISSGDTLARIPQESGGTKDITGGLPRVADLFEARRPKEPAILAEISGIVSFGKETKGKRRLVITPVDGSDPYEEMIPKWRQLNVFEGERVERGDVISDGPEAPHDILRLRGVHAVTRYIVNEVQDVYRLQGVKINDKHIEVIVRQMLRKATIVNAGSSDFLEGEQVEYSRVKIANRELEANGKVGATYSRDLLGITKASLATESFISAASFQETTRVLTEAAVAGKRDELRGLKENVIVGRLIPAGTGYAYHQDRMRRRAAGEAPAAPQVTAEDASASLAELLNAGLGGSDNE
Sequence of E. coli core RNAP enzyme (P0A800 whole entry, chain 4 of 4): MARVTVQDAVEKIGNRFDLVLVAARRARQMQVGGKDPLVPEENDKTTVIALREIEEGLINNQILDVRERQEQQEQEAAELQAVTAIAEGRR

B1: BODIPY FL-labelled DksA with a cysteine substitution at position 35 (A35C) (natural protein, E. coli)
chain: MQEGQNRKTSSLSILAIAGVEPYQEKPGEEYMNECQLAHFRRILEAWRNQLRDEVDRTVTHMQDEAANFPDPVDRAAQEEEFSLELRNRDRERKLIKKIEKTLKKVEDEDFGYCESCGVEIGIRRLEARPTADLCIDCKTLAEIREKQMAG
modifications: BODIPY FL (maleimide) conjugated to the cysteine at position 35
  Kd: 112 nM
